Test results taken from patent US20110195900A1, “PEPTIDIC PTH RECEPTOR AGONISTS” (FERRING B.V., priority 2008, published 2011).
Non-standard residues stand in square brackets, D forms with d. No end group written: not given here. 1Nal = N[C@@H](Cc1cccc2ccccc12)C(=O)O; Nle = CCCC[C@H](N)C(=O)O; Aib = CC(C)(N)C(=O)O; βAla = NCCC(=O)O

Assays:
[1] = target: human parathyroid hormone receptor 2 (human, UniProt P49190); assay: cell-based or functional assay
[2] = target: human parathyroid hormone receptor 1 (human, UniProt Q03431); assay: cell-based or functional assay

hPTHR-2 EC50 (nM), luciferase reporter gene assay [1]: 46 nM
hPTHR-1 EC50 (nM), CRE-luciferase reporter gene assay [2]: 0.22 nM
B1: [Aib^1, Nle^8,18, β-Ala^17, 1-Nal^23] hPTH (1-34)-NH2 (peptide)
peptide: [Aib]VSEIQL[Nle]HNLGKHLN[βAla][Nle]ERVE[1Nal]LRKKLQDVHNF-NH2
modifications: N-terminus assumed
SMILES: CCCC[C@H](NC(=O)CCNC(=O)[C@H](CC(N)=O)NC(=O)[C@H](CC(C)C)NC(=O)[C@H](Cc1c[nH]cn1)NC(=O)[C@H](CCCCN)NC(=O)CNC(=O)[C@H](CC(C)C)NC(=O)[C@H](CC(N)=O)NC(=O)[C@H](Cc1c[nH]cn1)NC(=O)[C@H](CCCC)NC(=O)[C@H](CC(C)C)NC(=O)[C@H](CCC(N)=O)NC(=O)[C@@H](NC(=O)[C@H](CCC(=O)O)NC(=O)[C@H](CO)NC(=O)[C@@H](NC(=O)C(C)(C)N)C(C)C)[C@@H](C)CC)C(=O)N[C@@H](CCC(=O)O)C(=O)N[C@@H](CCCNC(=N)N)C(=O)N[C@H](C(=O)N[C@@H](CCC(=O)O)C(=O)N[C@@H](Cc1cccc2ccccc12)C(=O)N[C@@H](CC(C)C)C(=O)N[C@@H](CCCNC(=N)N)C(=O)N[C@@H](CCCCN)C(=O)N[C@@H](CCCCN)C(=O)N[C@@H](CC(C)C)C(=O)N[C@@H](CCC(N)=O)C(=O)N[C@@H](CC(=O)O)C(=O)N[C@H](C(=O)N[C@@H](Cc1c[nH]cn1)C(=O)N[C@@H](CC(N)=O)C(=O)N[C@@H](Cc1ccccc1)C(N)=O)C(C)C)C(C)C
